Where two headings read alike, the source gives them in different places. Each block holds one binder with its values, some of them ahead of it.
Experiments:
Rad51 [1] = molecular target: T1, Rad51 (S. cerevisiae, UniProt P25454 1-400); assay: pull-down
T1 sequence (looked up): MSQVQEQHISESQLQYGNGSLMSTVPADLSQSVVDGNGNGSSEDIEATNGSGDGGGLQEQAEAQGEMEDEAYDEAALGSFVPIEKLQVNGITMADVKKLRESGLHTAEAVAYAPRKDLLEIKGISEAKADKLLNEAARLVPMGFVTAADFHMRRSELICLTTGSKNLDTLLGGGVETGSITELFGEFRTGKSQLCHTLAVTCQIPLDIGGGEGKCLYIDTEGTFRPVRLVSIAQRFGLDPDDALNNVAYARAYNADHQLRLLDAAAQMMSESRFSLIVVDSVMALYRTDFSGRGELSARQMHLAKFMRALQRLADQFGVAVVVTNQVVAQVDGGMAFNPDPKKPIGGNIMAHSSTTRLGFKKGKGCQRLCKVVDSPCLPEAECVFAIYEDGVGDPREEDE

Rad51 [2] = molecular target: T1, Rad51; assay: pull-down; remark: listed apart in the source

binding result (Rad51 [1]): binds
B1: MBP-Mei5-N (domain or fragment, S. cerevisiae, UniProt P32489 1-121, looked up)
chain: MHNQEEWLDKDKTLVNEEENTCINHSYTKKDTNNYRVGKSGIKDLKKPTNQKEIAIKNRELTKQLTLLRQENNHLQQACKILSENKIIENRKSIEKWRTICEMELSFILNSTLIKINRMGG

binding result (Rad51 [2]): binds
B2: Mei5-Sae3 complex (complex, S. cerevisiae)
chain 1: MHNQEEWLDKDKTLVNEEENTCINHSYTKKDTNNYRVGKSGIKDLKKPTNQKEIAIKNRELTKQLTLLRQENNHLQQACKILSENKIIENRKSIEKWRTICEMELSFILNSTLIKINRMGGYKDFLEKEMEAKKRRLEYQIDNGMEDQICEIKESDDFRQLSEVEKQEWESQMNEQLKELEKKKIAELEKLNKVLHDSEGKDFGMAELCTRLKLDYSLIFPQ
chain 2: MNYLETQLNKKQKQIQEYESMNGNLIKMFEQLSKEKKNDETPKKISSTYIKELKEYNELRDAGLRLAQIIADEKQCKIKDVFEEIGYSMKD

Source: paper PMC3119066 (DNA repair, 2011)
